In the RNAGym collection of RNA variant scans (doi:10.7554/elife.80360):

B1: Hairpin Ribozyme (parent)
chain: GUCCUCUUUCACGUGCGCGUGAAAGAGAGAAGUGAACCAGAGAAACACACGUUGUGGUAUAUUACCUGGUA

Variants of: B1
Assay: self-cleavage, relative activity (ratio to wild type); higher = more cleavage; co-transcriptional

Variant | self-cleavage
U9G C10G | 0.375
U9C A43C | 0.102
C50A U53A | 0.384
A11C A23U | 0.6
G54U A71C | 1.1
G19A U52C | 0.835
U20C G27C | 0.169
U33G U62C | 0.0629
G17U A61G | 0.117
U55G A64C | 0.153
C3A A24C | 0.775
C4U U63A | 0.157
G15A G34A | 1.11
U5G C18U | 0.243
U9C U70A | 0.669
U7A U14C | 0.772
A31G A35C | 0.6
G56U C65G | 0.104
G29U A41G | 0.082
C12G A35C | 0.74
A41C C50G | 0.667
G40C G69U | 0.128
C50A G57C | 0.133
A47C C48G | 0.0552

Variant | self-cleavage
G57C C65A | 0.0756
G27C G56U | 0.131
G25A G40C | 0.145
C4U A23U | 0.315
G15A A64C | 0.171
U5C A26C | 0.497
C18U A64G | 0.71
C4A A44U | 0.239
U60G U70G | 0.514
U9C A45U | 0.0912
G40U A43U | 0.148
G1C A11G | 0.194
A11U A26G | 0.751
G29A G40A | 0.133
A23G A24G | 0.715
G32C G40A | 0.164
A26C C65G | 0.226
G40A G57A | 0.0955
C16A C38G | 0.114
G25A G68C | 0.22
A22C A64U | 0.251
G32C U55G | 0.0931
G32A A71U | 0.155
A22G G29C | 0.129

Variant | self-cleavage
U5G U20C | 0.337
G17C G68A | 0.196
C12U A61C | 0.24
G21U G27C | 0.172
G69A U70G | 0.325
A23C A45G | 0.173
C10A A43C | 0.0904
U2C C16A | 0.0439
U2G G68C | 0.135
C37G U62G | 0.138
U52A U55C | 0.438
A26C A61G | 0.0543
A31U U52G | 0.117
G17U A71U | 0.815
G1A G21U | 0.127
U5C G29C | 0.205
C10U A64G | 0.606
A59C G68U | 0.138
U14A A39C | 0.515
U8C A44C | 0.131
U52G G68C | 0.283
A26C U60G | 0.365
G32A G54A | 0.156
A36G C48G | 0.259

Variant | self-cleavage
C10A U53A | 0.678
G54C G57C | 0.155
A43U U67C | 0.109
A43C U58C | 0.148
C37U G56U | 0.13
C38G U53C | 0.196
G40A A49G | 0.182
U8C G42A | 0.177
C48G A64G | 0.155
C18G U20C | 0.923
C12A G69U | 0.251
C4A U55A | 0.163
G15C C50U | 0.47
A22G G25C | 0.547
G40A C66G | 0.164
C46G U58G | 0.112
U63G C65U | 0.11
U14G G40A | 0.289
U33C G57C | 0.0819
G1C U52G | 0.206
U33G A41U | 0.251
A35G U70G | 0.711
C12G A43G | 0.139
G27C C65A | 0.146

Variant | self-cleavage
G1A G13U | 0.208
G1A G13C | 0.119
G13C G40U | 0.158
G15U G54A | 0.695
U5A G19A | 0.395
C3A G17A | 0.785
U7C G56C | 0.122
U5C A28U | 0.277
G57C U63C | 0.272
C6G U8A | 0.263
G21U G69C | 0.293
U7C G34U | 1.32
G15A A71C | 1.29
U62G U63C | 0.243
A22U A47U | 0.202
U2C G29A | 0.0747
C12G A59C | 0.076
G51C U67A | 0.123
G17A G27A | 0.547
C3U A59G | 0.0802
U14G G19C | 0.842
G32A U55A | 0.107
A28C U70C | 0.426
A43G A47G | 0.196

Variant | self-cleavage
A39C U63A | 0.17
A23C G29C | 0.126
U5C U53C | 0.317
U33A U67G | 0.169
U20C G51C | 0.54
A23U A43G | 0.204
C18U G25U | 0.69
U14A C37G | 0.295
A35C C65G | 0.387
G25C U53G | 0.39
G25U U53A | 0.647
C38G U55G | 0.193
C10U U58A | 0.533
G51A U52C | 0.738
G51A G69C | 0.467
G13U C66A | 0.176
C6A U14C | 0.579
U5C A71G | 0.389
U14C A61U | 0.293
G17U A36G | 1.06
U14C G34A | 0.988
U2G A26U | 0.238
U8A A61G | 0.0847
G19A U55G | 0.216

Variant | self-cleavage
G57C A61U | 0.161
G17A G25C | 0.552
U20A G54A | 0.546
G25U A71U | 0.575
U2A G68A | 0.0992
G1U A31U | 0.0996
U7C U14A | 0.808
A35C G69A | 0.378
A41G A43G | 0.157
C3G C46G | 0.0681
G56A U63A | 0.133
C16A C50U | 0.309
G1A A59G | 0.237
C6U G25C | 0.773
U8A G68U | 0.172
C16G U63A | 0.15
A47G A59C | 0.134
A24U G51A | 0.751
C10A G57U | 0.221
A36C A61G | 0.148
G57U U58A | 0.309
U8A G19C | 0.553
G15A A24U | 0.688
C48U A61G | 0.177

Variant | self-cleavage
U52A U58A | 0.818
G34A G40C | 0.174
G21C U60G | 0.55
C16A A39G | 0.243
G25U U67G | 0.18
C50U U63G | 0.198
U8G G17C | 0.23
A30C C38G | 0.0718
A49U U67A | 0.0529
G54C U55A | 0.196
C38U U63A | 0.141
G32A U53C | 0.243
C6G G54U | 0.267
C6G G54A | 0.28
C65U G69U | 0.279
U14A U70A | 0.863
G27A A35C | 0.485
G1A A39C | 0.138
G13A C50A | 0.284
G1A A43G | 0.2
G34C U70A | 1.12
A23C A59G | 0.143
G1U U67G | 0.097
U5G G19A | 0.243

Variant | self-cleavage
G34A C66U | 0.609
C38A U62A | 0.218
A43C A44C | 0.259
G27U A49G | 0.214
C18G G29U | 0.201
G19C C48G | 0.165
U58C C66U | 0.546
A11G G15U | 0.857
A35G U55A | 0.292
A24U C50A | 0.346
G21C A36G | 0.779
A49U C65U | 0.0248
A35U A44G | 0.234
A36U C48G | 0.182
A24U G27C | 0.194
A11U G21A | 0.586
C4U A11C | 0.191
A24C C37G | 0.242
A22G U53C | 0.817
C4A A28U | 0.174
G56A U67A | 0.197
C10A G54U | 0.426
A28C G69U | 0.0989
C37A A71C | 0.526

Variant | self-cleavage
G1U U55C | 0.217
U7A A39C | 0.498
A36U U53A | 0.464
U20C A59C | 0.185
A24G U70C | 0.913
A47G G68A | 0.181
A23U U53G | 0.696
A43G C65A | 0.0913
U7A C65G | 0.284
A36C G57A | 0.125
G17U G34C | 1.5
G17U G34U | 1.29
U7A A23G | 0.866
G13C A39C | 0.59
A41C U58A | 1.07
G15C A31U | 0.105
C48G G56U | 0.193
U8A G13C | 0.687
U8C U52A | 0.676
G54C U70G | 0.155
U58C U63A | 0.212
U7A G15U | 0.844
U33C C38G | 0.123
U52G U67G | 0.156

Variant | self-cleavage
A45C U55G | 0.0998
A44U U52C | 0.059
U9C A23C | 0.862
U9G A31C | 0.0438
U2C U58A | 0.235
G27U | 0.282
A64U G69C | 0.259
A28G G56U | 0.165
A22C A61G | 0.123
G15U G21A | 0.872
A28U U63A | 0.128
A36U U52C | 0.765
A22G C46A | 0.171
A11C U20C | 1.02
A31C U70C | 0.0987
A11G A31U | 0.0838
A23U C66U | 0.545
G25C U70G | 0.402
G42A C66A | 0.0634
A22C A26U | 0.429
A59C C65U | 0.23
G27A C50G | 0.131
C10A U62A | 0.238
C16A U63G | 0.253

Variant | self-cleavage
G25A U60G | 0.291
A39U G56A | 0.114
U2G C3G | 0.785
C16A U60A | 0.767
G32U A71G | 0.214
A36G U67A | 0.195
A35C A41C | 1.13
A22U U62A | 0.161
C16U G69A | 0.301
U52C C65U | 0.471
A24U G57C | 0.181
U20G A36U | 0.749
A30C A64U | 0.211
C65U U67G | 0.229
U52G U70C | 0.605
A11U G56A | 0.176
U58A G69C | 0.246
G17C G40U | 0.144
C12A A24G | 0.676
U14G C48G | 0.178
U8A C46G | 0.0541
C18A A64G | 0.61
C48U A71G | 0.242
A11U C50U | 0.36

Variant | self-cleavage
A41G U53A | 1.1
G17C G42A | 0.176
G13C C50G | 0.278
C3A C38U | 0.416
G13C U20C | 0.785
U5C G17C | 0.339
C6G A61G | 0.147
A43U A71U | 0.179
C37U G69U | 0.438
U7C C66A | 0.217
A22C G32U | 0.107
G13A U58G | 0.594
U2A A47U | 0.0626
G13C U14G | 0.688
U5A G54C | 0.124
G32U U67G | 0.121
G34C C37U | 1.34
G17A G19C | 0.969
U67A G68U | 0.128
C38A G69U | 0.0684
A24G U33C | 0.125
U5G G29U | 0.168
C18G G34A | 1.23
A59G U70G | 0.161

Variant | self-cleavage
U33C C46U | 0.0782
C4A C50G | 0.149
A23C C50G | 0.259
A26U G42A | 0.153
U63C A71U | 0.191
C46G U53G | 0.186
G29A A44G | 0.113
A59G U60G | 0.311
G1U C18U | 0.121
A11G U55G | 0.223
U58C U70G | 0.759
G13C U60A | 0.579
C12A U20G | 0.732
C6G A35G | 0.414
U55C G57C | 0.12
C10G A41G | 0.734
G57A U62C | 0.117
A31C A35U | 0.181
G32U U53G | 0.103
A49U G56U | 0.147
C6G G29U | 0.0829
C6A C38A | 0.141
